From patent US20210338838A1 (UNIVERSITY OF UTAH RESEARCH FOUNDATION, published 2021)

B1: monomeric C-reactive protein (CRP) (other, UniProt P02741 19-224, looked up)
chain: QTDMSRKAFVFPKESDTSYVSLKAPLTKPLKAFTVCLHFYTELSSTRGYSIFSYATKRQDNEILIFWSKDIGYSFTVGGSEILFEVPEVTVAPVHICTSWESASGIVEFWVDGKPRVRKSLKKGYTVGAEASIILGQEQDSFGGNFEGSQSLVGDIGNVNMWDFVLSPDEINTIYLGGPFSPNVLNWRALKYEVQGEVFTKPQLWP
B2: protective CFH-I62-Y402-E936 (full-length complement factor H) (other)
chain: EDCNELPPRRNTEILTGSWSDQTYPEGTQAIYKCRPGYRSLGNIIMVCRKGEWVALNPLRKCQKRPCGHPGDTPFGTFTLTGGNVFEYGVKAVYTCNEGYQLLGEINYRECDTDGWTNDIPICEVVKCLPVTAPENGKIVSSAMEPDREYHFGQAVRFVCNSGYKIEGDEEMHCSDDGFWSKEKPKCVEISCKSPDVINGSPISQKIIYKENERFQYKCNMGYEYSERGDAVCTESGWRPLPSCEEKSCDNPYIPNGDYSPLRIKHRTGDEITYQCRNGFYPATRGNTAKCTSTGWIPAPRCTLKPCDYPDIKHGGLYHENMRRPYFPVAVGKYYSYYCDEHFETPSGSYWDHIHCTQDGWSPAVPCLRKCYFPYLENGYNQNYGRKFVQGKSIDVACHPGYALPKAQTTVTCMENGWSPTPRCIRVKTCSKSSIDIENGFISESQYTYALKEKAKYQCKLGYVTADGETSGSITCGKDGWSAQPTCIKSCDIPVFMNARTKNDFTWFKLNDTLDYECHDGYESNTGSTTGSIVCGYNGWSDLPICYERECELPKIDVHLVPDRKKDQYKVGEVLKFSCKPGFTIVGPNSVQCYHFGLSPDLPICKEQVQSCGPPPELLNGNVKEKTKEEYGHSEVVEYYCNPRFLMKGPNKIQCVDGEWTTLPVCIVEESTCGDIPELEHGWAQLSSPPYYYGDSVEFNCSESFTMIGHRSITCIHGVWTQLPQCVAIDKLKKCKSSNLIILEEHLKNKKEFDHNSNIRYRCRGKEGWIHTVCINGRWDPEVNCSMAQIQLCPPPPQIPNSHNMTTTLNYRDGEKVSVLCQENYLIQEGEEITCKDGRWQSIPLCVEKIPCSQPPQIEHGTINSSRSSQESYAHGTKLSYTCEGGFRISEENETTCYMGKWSSPPQCEGLPCKSPPEISHGVVAHMSDSYQYGEEVTYKCFEGFGIDGPAIAKCLGEKWSHPPSCIKTDCLSLPSFENAIPMGEKKDVYKAGEQVTYTCATYYKMDGASNVTCINSRWTGRPTCRDTSCVNPPTVQNAYIVSRQMSKYPSGERVRYQCRSPYEMFGDEEVMCLNGNWTEPPQCKDSTGKCGPPPPIDNGDITSFPLSVYAPASSVEYQCQNLYQLEGNKRITCRNGQWSEPPKCLHPCVISREIMENYNIALRWTAKQKLYSRTGESVEFVCKRGYRLSSRSHTLRTTCWDGKLEYPTCAKR
notes: In the Western blot it was expressed in RPE1 cells from plasmid pCTM133; also called CFH-Protection
B3: eCFHT-SE (engineered truncated CFH, I62-Y402, ending in SESFTL) (other)
chain: EDCNELPPRRNTEILTGSWSDQTYPEGTQAIYKCRPGYRSLGNIIMVCRKGEWVALNPLRKCQKRPCGHPGDTPFGTFTLTGGNVFEYGVKAVYTCNEGYQLLGEINYRECDTDGWTNDIPICEVVKCLPVTAPENGKIVSSAMEPDREYHFGQAVRFVCNSGYKIEGDEEMHCSDDGFWSKEKPKCVEISCKSPDVINGSPISQKIIYKENERFQYKCNMGYEYSERGDAVCTESGWRPLPSCEEKSCDNPYIPNGDYSPLRIKHRTGDEITYQCRNGFYPATRGNTAKCTSTGWIPAPRCTLKPCDYPDIKHGGLYHENMRRPYFPVAVGKYYSYYCDEHFETPSGSYWDHIHCTQDGWSPAVPCLRKCYFPYLENGYNQNYGRKFVQGKSIDVACHPGYALPKAQTTVTCMENGWSPTPRCIRVSESFTL
notes: The chain is built from the first 445 residues shared by CFH and CFHT, less the 18-residue signal peptide, plus the printed C-terminal SESFTL; His-tagged and purified from HEK293 cells; also called protective eCFHT-SE; truncated product of eCFH/T v4.3
B4: protective CFHT-I62-Y402 (truncated complement factor H ending in SFTL) (other)
chain: EDCNELPPRRNTEILTGSWSDQTYPEGTQAIYKCRPGYRSLGNIIMVCRKGEWVALNPLRKCQKRPCGHPGDTPFGTFTLTGGNVFEYGVKAVYTCNEGYQLLGEINYRECDTDGWTNDIPICEVVKCLPVTAPENGKIVSSAMEPDREYHFGQAVRFVCNSGYKIEGDEEMHCSDDGFWSKEKPKCVEISCKSPDVINGSPISQKIIYKENERFQYKCNMGYEYSERGDAVCTESGWRPLPSCEEKSCDNPYIPNGDYSPLRIKHRTGDEITYQCRNGFYPATRGNTAKCTSTGWIPAPRCTLKPCDYPDIKHGGLYHENMRRPYFPVAVGKYYSYYCDEHFETPSGSYWDHIHCTQDGWSPAVPCLRKCYFPYLENGYNQNYGRKFVQGKSIDVACHPGYALPKAQTTVTCMENGWSPTPRCIRVSFTL
notes: In the Western blot it was expressed in RPE1 cells from pCTM134 and from eCFH/T v4.1; also called CFHT-Protection; native protective CFHT

Assays:
[1] = target: B2; test: plate-based binding assay, His-tagged recombinant protein from HEK293 cells
[2] = target: B4; test: as above
[3] = target: T1, eCFHT-SK (engineered truncated CFH, I62-Y402, ending in SKSFTL) (human, UniProt P08603 19-445); test: as above
T1 construct: Non-natural variant of human CFHT with SK inserted before the C-terminal SFTL; In the Western blot it was expressed from eCFH/T v4.2 in RPE1 cells; also called protective eCFHT-SK; truncated product of eCFH/T v4.2

[4] = target: B3; test: as above
[5] = target: B1; test: relative CRP-binding assay, detection antibody AbCam OX-24 (#Ab112197)
[6] = target: T2, MDA-modified LDL particles; test: relative MDA-binding assay, detection antibody AbCam OX-24 (#Ab112197)
T2 construct: Not a plain protein; also called MDA-LDL; MDA adducts

[7] = target: B1; test: rank of binding affinity among six proteins, plate-based binding assays
[8] = target: T2, MDA-modified LDL particles; test: as above
[9] = target: T2, MDA-modified LDL particles; test: plate-based binding assay, His-tagged recombinant protein from HEK293 cells
[10] = target: B1; test: relative CRP-binding assay, percent of CFH-Risk, detection antibody AbCam OX-24 (#Ab112197)
[11] = target: T2, MDA-modified LDL particles; test: relative MDA-binding assay, percent of CFH-Risk, detection antibody AbCam OX-24 (#Ab112197)
[12] = target: B1; test: plate-based CRP binding assay, against protective CFH

T1 sequence (P08603 other isoform, or with tags, fused parts or gaps): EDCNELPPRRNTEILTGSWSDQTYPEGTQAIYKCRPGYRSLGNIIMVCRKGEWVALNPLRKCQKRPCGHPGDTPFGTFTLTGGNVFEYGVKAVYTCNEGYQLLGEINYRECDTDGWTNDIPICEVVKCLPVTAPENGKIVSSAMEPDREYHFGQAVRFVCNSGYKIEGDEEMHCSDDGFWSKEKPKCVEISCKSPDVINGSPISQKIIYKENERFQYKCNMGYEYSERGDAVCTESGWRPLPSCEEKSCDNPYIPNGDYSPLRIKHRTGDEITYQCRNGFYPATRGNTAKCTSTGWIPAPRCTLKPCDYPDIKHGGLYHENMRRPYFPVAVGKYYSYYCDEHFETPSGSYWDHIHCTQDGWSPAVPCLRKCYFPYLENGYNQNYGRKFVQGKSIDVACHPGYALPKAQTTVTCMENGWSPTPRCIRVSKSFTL

Kd [1]	Kd [2]	Kd [3]	Kd [4]	Binding Potential [5]	Binding Potential [6]	Binding Affinity Rank (1 best to 6 worst) [7]	Binding Affinity Rank (1 best to 6 worst) [8]	Kd [9]	% FH-Risk [10]	% FH-Risk [11]	fold better binding affinity than CFH [12]	Binder
127 nM	14.3 nM	13.7 nM	25.3 nM									B1
				10	75	4 rank	2 rank	222 nM	656%	251%		B2
						3 rank	4 rank	305 nM				B3
				87	32	2 rank	1 rank	219 nM	5900%	107%	~10 fold	B4
